In series [1] the target is des-Arg9-bradykinin (UniProt P01042 P01042:381-388, des-Arg9). Briefly: competition; inhibition of reaction of 12.1 with BrBK; +/-0.5. Conditions: tags: peptide analog.
Series [2] has as its target bradykinin (BK) (UniProt P01042 P01042:381-389). Briefly: competition; inhibition of reaction of 12.1 with BrBK; +/-60. The following applies: tags: native peptide.
The target in series [3] is bradykinin, N-bromoacetylated (BrBK) (UniProt P01042 P01042:381-389). Briefly: kobs covalent reaction, APM gel, 0 C, 5 mM MgCl2. The following applies: protein: synthetic; tags: synthetic peptide, N-terminal bromoacetyl. As for the experimental part:
Reverse transcription and polymerase chain reaction were carried out as reported by Schneider et al., (FASEB, 7, 201 (1993)). […] Reactions to determine $kobs$ values were carried out at 0° C. in reaction buffer (50 mM HEPES, pH 7.0, 5 mM MgCl_2, 150 mM NaCl) at 2 µM GMPS-RNA and 130 µM BrBK, with monitoring at 0, 1, 3, 10, 30, and 90 minutes. GMPS-RNA was denatured at 70° C. for 3 minutes and allowed to slow cool at room temperature prior to dilution to final reaction buffer conditions, transfer to ice, and addition of BrBK. Reactions were quenched on ice with 235 mM sodium thiosulfate and run on a denaturing 7 M urea 8% polyacrylamide APM gel. $kobs$ values were determined as the negative slope of the linear range of data points from plots relating the concentration of unreacted GMPS- RNA vs. time. Round 10 and round 12 pools were used for cloning and sequencing.

Series [4] deals with Rev (HIV-1, UniProt P04618 P04618:1-116). Briefly: EMSA; covalent complex without UV, resistant to 7M urea PAGE, in presence of human nuclear extract, on ice. As for the experimental part:
Trunc24 (SEQ ID NO:226) photo-independent crosslinking with HIV-1 Rev in the presence of human nuclear extracts was determined as follows: Trunc24 RNA, nuclear extracts, and Rev protein were combined and incubated on ice for 10 min. Samples were mixed 1:1 with 8M urea loading buffer and placed on a 7M urea, 8% polyacrylamide gel for analysis.

From patent US5998142, “Systematic evolution of ligands by exponential enrichment: chemi-SELEX” (NeXstar Pharmaceuticals, Inc.) come the findings set out here.

In general, Ki refers to the dissociation constant of the complex between target and ligand, obtained from inhibition or displacement.

bradykinin, N-bromoacetylated (BrBK), sequence (P01042 whole entry, looked up, one chain of several): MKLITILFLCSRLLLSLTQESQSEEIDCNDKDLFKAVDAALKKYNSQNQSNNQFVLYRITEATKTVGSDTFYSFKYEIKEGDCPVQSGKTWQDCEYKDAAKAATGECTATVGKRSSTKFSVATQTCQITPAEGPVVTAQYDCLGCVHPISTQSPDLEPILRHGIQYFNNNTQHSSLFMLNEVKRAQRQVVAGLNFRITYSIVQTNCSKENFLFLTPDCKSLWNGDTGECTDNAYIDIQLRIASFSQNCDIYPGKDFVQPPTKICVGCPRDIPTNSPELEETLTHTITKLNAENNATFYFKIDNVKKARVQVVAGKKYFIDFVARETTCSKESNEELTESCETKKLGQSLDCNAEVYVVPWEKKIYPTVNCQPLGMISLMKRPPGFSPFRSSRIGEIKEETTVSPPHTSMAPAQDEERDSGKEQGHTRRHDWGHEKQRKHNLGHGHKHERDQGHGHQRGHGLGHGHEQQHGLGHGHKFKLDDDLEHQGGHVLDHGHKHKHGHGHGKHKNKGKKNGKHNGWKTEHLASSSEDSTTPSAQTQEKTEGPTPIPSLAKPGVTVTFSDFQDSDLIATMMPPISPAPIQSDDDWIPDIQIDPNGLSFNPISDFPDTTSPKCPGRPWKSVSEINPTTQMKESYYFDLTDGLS
Rev, sequence (P04618 whole entry, one chain of several): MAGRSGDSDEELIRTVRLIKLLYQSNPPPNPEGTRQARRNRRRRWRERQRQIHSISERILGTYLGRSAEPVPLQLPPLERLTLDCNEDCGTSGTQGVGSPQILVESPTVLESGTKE
des-Arg9-bradykinin, sequence (P01042 whole entry, looked up, change not shown, one chain of several): as the sequence (P01042 whole entry, looked up, one chain of several) above
bradykinin (BK), sequence (P01042 whole entry, looked up, one chain of several): as above

B1: 12.1 (ssRNA)
RNA: GGGAGCUCAGAAUAAACGCUCAAAGCUGUUGGCAGCGCUGGUGAAGGGAUAGGCUUCGACAUGAGGCCCGGAUCCGGC
modifications: 5'-GMPS
On to B1, for which the Ki amounted to 2600 µM in series [1] and 140 µM in series [2].

B2: 12.9 (ssRNA)
RNA: GGGAGCUCAGAAUAAACGCUCAAGUGGAGCUUCGUGACUUGGUCGGAGCCGUGUUCGACAUGAGGCCCGGAUCCGGC
modifications: 5'-GMPS
The molecule B2 had an activity in series [3] of 0.00128 s⁻¹.

B3: 12.22 (ssRNA)
RNA: GGGAGCUCAGAAUAAACGCUCAAUGCCACUUUUGUUCGGAUCUUAGGAAGGCAUUCGACAUGAGGCCCGGAUCCGGC
modifications: 5'-GMPS
In series [3], B3 showed an activity of 0.0012 s⁻¹.

B4: 12.4 (ssRNA)
RNA: GGGAGCUCAGAAUAAACGCUCAACGAAUCAAUGCGCGGAUCUCAGGAUAUUCGUUCGACAUGAGGCCCGGAUCCGGC
modifications: 5'-GMPS
In the case of B4, the activity in series [3] is 0.0017 s⁻¹.

B5: 12.24 (ssRNA)
RNA: GGGAGCUCAGAAUAAACGCUCAACGUCAGCGGAUCUCCAUUGCGUUAUACGGGUUCGACAUGAGGCCCGGAUCCGGC
modifications: 5'-GMPS
B5: the activity in series [3] came out at 0.00144 s⁻¹.

B6: 12.14 (ssRNA)
RNA: GGGAGCUCAGAAUAAACGCUCAAACGUCAUUCCGAGUCGGGUUCGUUCCCCGCUUCGACAUGAGGCCCGGAUCCGGC
modifications: 5'-GMPS
B6 gave an activity in series [3] of 0.0017 s⁻¹.

B7: 12.47 (ssRNA)
RNA: GGGAGCUCAGAAUAAACGCUCAAUGUGUGAGUGGAUCCGUUCCCCGCCUGGUGUUCGACAUGAGGCCCGGAUCCGGC
modifications: 5'-GMPS
As for B7, in series [3], the activity was found to be 0.00149 s⁻¹.
For GGGGAUUAACAGGCACACCUGUUAACCCU (ssRNA, 5-iodouracil at all U) [Trunc24], the binding result in series [4] is recorded as “binds”.

B8: 12.46 (ssRNA)
RNA: GGGAGCUCAGAAUAAACGCUCAAUGGACACAACUCCAUUCAUCCCGGGACCGCUGUUCGACAUGAGGCCCGGAUCCGGC
modifications: 5'-GMPS
Molecule B8 registered an activity in series [3] of 0.00067 s⁻¹.

B9: 12.6 (ssRNA)
RNA: GGGAGCUCAGAAUAAACGCUCAAGCGGUAACAUGCUGGAUCUCAGGAAACCGCUUCGACAUGAGGCCCGGAUCCGGC
modifications: 5'-GMPS
In series [3], B9 displayed an activity of 0.0022 s⁻¹.

B10: 12.45 (ssRNA)
RNA: GGGAGCUCAGAAUAAACGCUCAAGCGGUAACAUGCUGGAUCUCAGGAAACCGUUUCGACAUGAGGCCCGGAUCCGGC
modifications: 5'-GMPS
Molecule B10 had an activity in series [3] of 0.0051 s⁻¹.

B11: 10.28 (ssRNA)
RNA: GGGAGCUCAGAAUAAACGCUCAACGUUUAGGACUCCCCCGUUCGUCGAGCGAAUUCGACAUGAGGCCCGGAUCCGGC
modifications: 5'-GMPS
In series [3], B11 returned an activity of 0.0018 s⁻¹.

B12: 12.3 (ssRNA)
RNA: GGGAGCUCAGAAUAAACGCUCAACAUCACAACUUGUUGUCCUGGUCGAUGUCCUUCGACAUGAGGCCCGGAUCCGGC
modifications: 5'-GMPS
In turn, B12 returned an activity in series [3] of 0.00075 s⁻¹.
